# Measurements published in paper PMC6195791, “C9orf72, a protein associated with amyotrophic lateral sclerosis (ALS) is a guanine nucleotide exchange factor” (PeerJ, 2018).
# T1: Rab5A (UniProt P20339 1-215)
# T1 construct: Rab5A, amplified from its cDNA clone and put into pGEX-6p-1 (BamHI/XhoI); about 25 kDa after tag cleavage; source: E. coli BL21CodonPlus(DE3)RIPL, purified (GST Sepharose 4B, PreScission cleavage, second GST Sepharose pass); not shown: GST, N-terminal, cleaved
# T1 sequence (looked up): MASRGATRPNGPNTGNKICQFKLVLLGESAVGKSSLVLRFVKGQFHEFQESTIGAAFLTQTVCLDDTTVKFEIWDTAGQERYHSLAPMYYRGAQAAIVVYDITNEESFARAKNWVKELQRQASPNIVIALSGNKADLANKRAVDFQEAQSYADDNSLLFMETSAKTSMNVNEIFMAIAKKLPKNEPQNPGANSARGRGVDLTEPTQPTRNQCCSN
# T2: Rab11A (UniProt P62491 1-216)
# T2 construct: Rab11A, amplified from its cDNA clone and put into pGEX-6p-1 (BamHI/XhoI); about 25 kDa after tag cleavage; source: E. coli BL21CodonPlus(DE3)RIPL, purified (GST Sepharose 4B, PreScission cleavage, second GST Sepharose pass); not shown: GST, N-terminal, cleaved
# T2 sequence (looked up): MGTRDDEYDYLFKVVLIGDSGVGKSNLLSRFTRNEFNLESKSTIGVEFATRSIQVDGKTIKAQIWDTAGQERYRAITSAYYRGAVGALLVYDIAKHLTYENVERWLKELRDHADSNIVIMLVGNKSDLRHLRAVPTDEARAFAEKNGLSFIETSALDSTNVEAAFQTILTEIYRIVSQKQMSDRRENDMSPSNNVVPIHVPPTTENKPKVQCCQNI
# Columns and labels:
# Assay in all cases: SEC; 3x molar excess of Rab mixed with C9orf72, overnight on ice with 20 mM EDTA; gel filtration in 20 mM Tris pH 8.0, 300 mM NaCl, 2 mM DTT, 20 mM EDTA (Superdex75 in the methods, Superdex 200 10/30 in the legend); 21 uM C9orf72 and 48 uM Rab per run; fractions checked by SDS-PAGE and western blot
# [1] = target: T1, Rab5A; details: both partners purified
# [2] = target: T2, Rab11A; details: both partners purified
# [3] = target: the molecule itself
binder,measurement,setting,value
"C9orf72 (N-terminal His6, pOPINF-C9orf72) (natural protein, human, UniProt Q96LT7 1-481, looked up, the homology model counts residues up to 481; No tag cleavage is described; also called His6-C9orf72; recombinant C9orf72; source: Sf9, baculovirus, purified (HisTrap HP, Superdex200 size-exclusion chromatography); not shown: His6, N-terminal, kept) MSTLCPPPSPAVAKTEIALSGKSPLLAATFAYWDNILGPRVRHIWAPKTEQVLLSDGEITFLANHTLNGEILRNAESGAIDVKFFVLSEKGVIIVSLIFDGNWNGDRSTYGLSIILPQTELSFYLPLHRVCVDRLTHIIRKGRIWMHKERQENVQKIILEGTERMEDQGQSIIPMLTGEVIPVMELLSSMKSHSVPEEIDIADTVLNDDDIGDSCHEGFLLNAISSHLQTCGCSVVVGSSAEKVNKIVRTLCLFLTPAERKCSRLCEAESSFKYESGLFVQGLLKDSTGSFVLPFRQVMYAPYPTTHIDVDVNTVKQMPPCHEHIYNQRRYMRSELTAFWRATSEEDMAQDTIIYTDESFTPDLNIFQDVLHRDTLVKAFLDQVFQLKPGLSLRSTFLAQFLLVLHRKALTLIKYIEDDTQKGKKPFKSLRNLKIDLDLTAEGDLNIIMALAEKIKPGLHSFIFGRPFYTSVQERDVLMTF",stoichiometry N,[1],1
same,stoichiometry N,[2],1
same,binding result,[3],binds
